Test [1] deals with mouse IL-17RA (IL-17 receptor) on ST-2 cells (mouse) (UniProt Q60943). Description: cell-based or functional assay.
Test [2] addresses T1, IL-17RA FN1 domain fused to the Gal4 DNA binding domain (pGBKT7) (yeast, UniProt P04386 1-147, limits assumed).
T1 construct: Only the FN1 domain was used
Description: yeast two-hybrid, growth on -Leu/-Trp/-Ade. As to the method: The IL-17RA ECD, FN2, FN2/linker and FN1 domains were fused to the Ga14 DNA binding domain (BD) or activation domain (AD) in the Pgbkt7 and Pgadat7 yeast expression plasmids (BD Clontech). S. cerevisiae were transformed by standard methods, and growth on Leu-Trp-deficient plates or Leu-Trp-Ade-deficient plates was evaluated by colony counting. CARMA1 (provided by X. Lin, MD Anderson Cancer Center, Houston Tex.) was used a positive control.
To obtain the data presented Table 1, full length (FL) IL-17RA or the FN1, FN2/linker or FN2 domains were fused to the yeast Ga14 DNA binding domain (BD) or activation domain (AD) in the pGBKT7 and pGADT7 plasmids. S. cerevisiae were transformed with the indicated pairs of plasmids and growth on Leu-Trp-deficient plates (selecting for both plasmids) or Leu-Trp-Ade-deficient plates (selecting for each plasmid and an interaction) was evaluated. CARMA1 was a positive control. FL, full length. FN, fibronectin.

The target of test [3] is human IL-17RA on normal human foreskin fibroblasts (HFF) (human) (UniProt Q96F46). Description: cell-based or functional assay.
The target in test [4] is T2, huIL-17.Fc (huIL17 with N-terminal flag and huFC (IgG1)) (human, UniProt Q16552 24-155).
T2 construct: also called IL-17 fused to human Fc; not shown: human IgG1 Fc (huFC)
Description: flow cytometry, huIL-17.Fc staining with anti-huIgG-APC. As to the method: Cells were incubated with M750 or M177 anti-mouse IL-17RA followed by anti-rat PE (BD Pharmigen). To prepare huIL-17.Fc, a cDNA encoding huIL17, N-terminal flag and huFC (IgG1) was amplified by PCR and cloned into the Pdc409 vector. Secreted IL17.Fc was purified from transfected COS cells over a Protein A column and its concentration determined using a human Fc ELISA. For binding, 293 cells were blocked with anti-human IL-17RA (M202) and stained with huIL17.Fc followed by anti-hulgG-APC (Jackson Immunoresearch, West Grove, Pa.). Data were analyzed on a FACSCalibur with Cell Quest software (BD Biosciences). FRET data were obtained from three channel images using the macro of LSM FRET tool software (Zeiss AIM software, per standard techniques). A minimum of 50 regions of interest at the membrane were assessed for each condition. FRET efficiencies were calculated by the NFRET method and significance determined by t-test.
A general note: A flow cytometer gives signals particle by particle.

Sequence of mouse IL-17RA (IL-17 receptor) on ST-2 cells (mouse) (Q60943 32-864): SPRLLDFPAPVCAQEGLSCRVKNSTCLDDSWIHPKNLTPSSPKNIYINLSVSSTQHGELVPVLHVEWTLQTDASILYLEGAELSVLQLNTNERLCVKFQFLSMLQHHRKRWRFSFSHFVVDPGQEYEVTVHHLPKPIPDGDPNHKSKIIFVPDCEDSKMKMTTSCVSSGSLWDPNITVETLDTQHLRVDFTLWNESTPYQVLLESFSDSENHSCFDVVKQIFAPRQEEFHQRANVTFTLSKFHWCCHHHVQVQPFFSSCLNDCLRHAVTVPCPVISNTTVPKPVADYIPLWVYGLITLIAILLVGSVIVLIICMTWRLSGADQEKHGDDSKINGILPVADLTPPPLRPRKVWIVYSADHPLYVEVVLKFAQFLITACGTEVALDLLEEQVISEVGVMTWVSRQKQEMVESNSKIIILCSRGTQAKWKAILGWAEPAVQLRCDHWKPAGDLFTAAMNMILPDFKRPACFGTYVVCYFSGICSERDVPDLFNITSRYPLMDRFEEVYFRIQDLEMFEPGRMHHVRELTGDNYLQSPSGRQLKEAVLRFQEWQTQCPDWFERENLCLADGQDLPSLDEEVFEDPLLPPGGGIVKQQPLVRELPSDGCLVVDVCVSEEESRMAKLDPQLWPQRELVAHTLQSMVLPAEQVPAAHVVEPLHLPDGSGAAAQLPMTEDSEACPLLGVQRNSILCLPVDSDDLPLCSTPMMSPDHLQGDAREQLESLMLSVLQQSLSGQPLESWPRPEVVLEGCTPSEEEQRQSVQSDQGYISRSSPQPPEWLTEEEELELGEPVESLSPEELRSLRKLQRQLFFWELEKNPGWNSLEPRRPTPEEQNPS
T2 sequence (Q16552 other isoform, or with tags, fused parts or gaps limits assumed): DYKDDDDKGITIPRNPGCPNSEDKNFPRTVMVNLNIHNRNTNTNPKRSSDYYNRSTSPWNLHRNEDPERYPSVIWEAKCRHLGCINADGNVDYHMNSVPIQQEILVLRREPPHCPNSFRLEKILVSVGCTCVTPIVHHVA

As to “muPLAD (murine PLAD construct, FN2 of mouse IL-17RA without the linker) (from UniProt Q60943 205-283) (receptor)”, in test [1], the IL-6 (ELISA) from ST-2 cells + IL-17A 10 ng/ml, muPLAD at 3 ug/ml stood at 2240 pg/mL; the IL-6 (ELISA) from ST-2 cells + IL-17A 10 ng/ml, muPLAD at 3 ug/ml (Example 9) turned out to be 155 pg/mL; the IL-6 (ELISA) from ST-2 cells + IL-17A 10 ng/ml, muPLAD at 10 ug/ml was determined as 2530 pg/mL; the IL-6 (ELISA) from ST-2 cells + IL-17A 10 ng/ml, muPLAD at 10 ug/ml (Example 9) turned out to be 125 pg/mL. Besides, in test [1], the IL-6 (ELISA) from ST-2 cells + IL-17A 10 ng/ml, muPLAD at 30 ug/ml stood at 2040 pg/mL; the IL-6 (ELISA) from ST-2 cells + IL-17A 10 ng/ml, muPLAD at 30 ug/ml (Example 9) worked out at 108 pg/mL; the IL-6 (ELISA) from ST-2 cells + IL-17A + TNFa 2 ng/ml, muPLAD at 3 ug/ml stood at 6980 pg/mL; the IL-6 (ELISA) from ST-2 cells + IL-17A + TNFa 2 ng/ml, muPLAD at 10 ug/ml is 6980 pg/mL. For the same molecule, in test [1], the IL-6 (ELISA) from ST-2 cells + IL-17A + TNFa 2 ng/ml, muPLAD at 30 ug/ml is 6980 pg/mL; the KC (Groα) (ELISA) from ST-2 cells + IL-17A 10 ng/ml, muPLAD at 3 ug/ml was determined as 6190 pg/mL; the KC (Groα) (ELISA) from ST-2 cells + IL-17A 10 ng/ml, muPLAD at 10 ug/ml was determined as 6130 pg/mL; the KC (Groα) (ELISA) from ST-2 cells + IL-17A 10 ng/ml, muPLAD at 30 ug/ml worked out at 6100 pg/mL. For the same molecule, in test [1], the KC (Groα) (ELISA) from ST-2 cells + IL-17A + TNFa, muPLAD at 3 ug/ml was found to be 6150 pg/mL; the KC (Groα) (ELISA) from ST-2 cells + IL-17A + TNFa, muPLAD at 10 ug/ml was determined as 6460 pg/mL; the KC (Groα) (ELISA) from ST-2 cells + IL-17A + TNFa, muPLAD at 30 ug/ml was 6300 pg/mL.

For “muPLAD-L (murine PLAD/Linker construct, linker and FN2 of mouse IL-17RA) (from UniProt Q60943 184-283) (receptor)”, in test [1], the IL-6 (ELISA) from ST-2 cells + IL-17A 10 ng/ml, muPLAD-L at 3 ug/ml was determined as 2710 pg/mL; the IL-6 (ELISA) from ST-2 cells + IL-17A 10 ng/ml, muPLAD-L at 3 ug/ml (Example 9) was 182 pg/mL; the IL-6 (ELISA) from ST-2 cells + IL-17A 10 ng/ml, muPLAD-L at 10 ug/ml came to 2790 pg/mL; the IL-6 (ELISA) from ST-2 cells + IL-17A 10 ng/ml, muPLAD-L at 10 ug/ml (Example 9) amounted to 110 pg/mL. Besides, in test [1], the IL-6 (ELISA) from ST-2 cells + IL-17A 10 ng/ml, muPLAD-L at 30 ug/ml came to 1880 pg/mL; the IL-6 (ELISA) from ST-2 cells + IL-17A 10 ng/ml, muPLAD-L at 30 ug/ml (Example 9) is 110 pg/mL; the IL-6 (ELISA) from ST-2 cells + IL-17A + TNFa 2 ng/ml, muPLAD-L at 3 ug/ml was 7020 pg/mL; the IL-6 (ELISA) from ST-2 cells + IL-17A + TNFa 2 ng/ml, muPLAD-L at 10 ug/ml was 7040 pg/mL. Moreover, in test [1], the IL-6 (ELISA) from ST-2 cells + IL-17A + TNFa 2 ng/ml, muPLAD-L at 30 ug/ml is 7180 pg/mL; the KC (Groα) (ELISA) from ST-2 cells + IL-17A 10 ng/ml, muPLAD-L at 3 ug/ml is 5980 pg/mL; the KC (Groα) (ELISA) from ST-2 cells + IL-17A 10 ng/ml, muPLAD-L at 10 ug/ml came to 5440 pg/mL; the KC (Groα) (ELISA) from ST-2 cells + IL-17A 10 ng/ml, muPLAD-L at 30 ug/ml is 6230 pg/mL. For the same molecule, in test [1], the KC (Groα) (ELISA) from ST-2 cells + IL-17A + TNFa, muPLAD-L at 3 ug/ml worked out at 5750 pg/mL; the KC (Groα) (ELISA) from ST-2 cells + IL-17A + TNFa, muPLAD-L at 10 ug/ml turned out to be 5550 pg/mL; the KC (Groα) (ELISA) from ST-2 cells + IL-17A + TNFa, muPLAD-L at 30 ug/ml is 5500 pg/mL.

B1: IL-17RA FN1 domain fused to the Gal4 activation domain (pGADT7) (other, not shown: large carriers)
chain: TPSSPKNIYINLSVSSTQHGELVPVLHVEWTLQTDASILYLEGAELSVLQLNTNERLCVKFQFLSMLQHHRKRWRFSFSHFVVDPGQEYEVTVHHLPKPIPDGDPNHKSKIIFVP
notes: Only the FN1 domain was used; Species is inferred as mouse
With B1, the binding result in test [2] is given as “no binding”.

B2: IL-17R PLAD-GSS-FH (recombinant human IL-17R PLAD without the linker, first generation construct) (receptor)
chain: PNITVETLEAHQLRVSFTLWNESTHYQILLTSFPHMENHSCFEHMHHIPAPRPEEFHQRSNVTLTLRNLKGCCRHQVQ
As for B2, in test [3], the GROα (ELISA) from HFF + 5 ng/mL huIL-17A, IL-17R PLAD-GSS-FH at 0.032 ug/mL was 460 pg/mL; the GROα (ELISA) from HFF + 5 ng/mL huIL-17A, IL-17R PLAD-GSS-FH at 0.16 ug/mL was determined as 463 pg/mL; the GROα (ELISA) from HFF + 5 ng/mL huIL-17A, IL-17R PLAD-GSS-FH at 0.8 ug/mL is 471 pg/mL; the GROα (ELISA) from HFF + 5 ng/mL huIL-17A, IL-17R PLAD-GSS-FH at 4 ug/mL was 420 pg/mL. Besides, in test [3], the GROα (ELISA) from HFF + 5 ng/mL huIL-17A, IL-17R PLAD-GSS-FH at 20 ug/mL was 363 pg/mL and the GROα (ELISA) from HFF + 5 ng/mL huIL-17A, IL-17R PLAD-GSS-FH at 100 ug/mL was found to be 300 pg/mL.

B3: FN2 domain construct of IL-17RA (lacking FN1 and the linker), expressed on cells (receptor)
chain: PNITVETLDTQHLRVDFTLWNESTPYQVLLESFSDSENHSCFDVVKQIFAPRQEEFHQRANVTFTLSKFHWCCHHHVQV
notes: not shown: transmembrane region, cytoplasmic part and any tag of the construct
For B3, the binding result in test [4] was “no binding”.

B4: IL-17R PLAD-LINKER-GSS-FH (recombinant human IL-17R PLAD-linker, first generation construct) (receptor)
chain: DCEHARMKVTTPCMSSGSLWDPNITVETLEAHQLRVSFTLWNESTHYQILLTSFPHMENHSCFEHMHHIPAPRPEEFHQRSNVTLTLRNLKGCCRHQVQ
In the case of B4, in test [3], the GROα (ELISA) from HFF + 5 ng/mL huIL-17A, IL-17R PLAD-LINKER-GSS-FH at 0.032 ug/mL was 437 pg/mL; the GROα (ELISA) from HFF + 5 ng/mL huIL-17A, IL-17R PLAD-LINKER-GSS-FH at 0.16 ug/mL is 541 pg/mL; the GROα (ELISA) from HFF + 5 ng/mL huIL-17A, IL-17R PLAD-LINKER-GSS-FH at 0.8 ug/mL is 460 pg/mL; the GROα (ELISA) from HFF + 5 ng/mL huIL-17A, IL-17R PLAD-LINKER-GSS-FH at 4 ug/mL came out at 381 pg/mL. Further, in test [3], the GROα (ELISA) from HFF + 5 ng/mL huIL-17A, IL-17R PLAD-LINKER-GSS-FH at 20 ug/mL amounted to 310 pg/mL and the GROα (ELISA) from HFF + 5 ng/mL huIL-17A, IL-17R PLAD-LINKER-GSS-FH at 100 ug/mL is 315 pg/mL.

B5: IL-17R PLAD-mod-GSS-FH (recombinant human IL-17R PLAD without the linker, second generation construct) (receptor)
chain: PNITVETLEAHQLRVSFTLWNESTHYQILLTSFPHMENHSCFEHMHHIPAPRPEEFHQRSNVTLTLRNLKGCCRHQVQIQPFFSSCLNDCLRHSATVSCPEMPDTPEPIPDGSSDYKDDDDKGSSHHHHHH
As for B5, in test [3], the GROα (ELISA) from HFF + 5 ng/mL huIL-17A, IL-17R PLAD-mod-GSS-FH at 0.032 ug/mL stood at 467 pg/mL; the GROα (ELISA) from HFF + 5 ng/mL huIL-17A, IL-17R PLAD-mod-GSS-FH at 0.16 ug/mL is 486 pg/mL; the GROα (ELISA) from HFF + 5 ng/mL huIL-17A, IL-17R PLAD-mod-GSS-FH at 0.8 ug/mL worked out at 484 pg/mL; the GROα (ELISA) from HFF + 5 ng/mL huIL-17A, IL-17R PLAD-mod-GSS-FH at 4 ug/mL turned out to be 499 pg/mL. Also, in test [3], the GROα (ELISA) from HFF + 5 ng/mL huIL-17A, IL-17R PLAD-mod-GSS-FH at 20 ug/mL came to 440 pg/mL and the GROα (ELISA) from HFF + 5 ng/mL huIL-17A, IL-17R PLAD-mod-GSS-FH at 100 ug/mL came to 411 pg/mL.

For the origin of these results see US20120009190A1 (Amgen, published 2012).
